Data on 2 compounds can be found in paper PMC4376459, “CXCR3 antagonist VUF10085 binds to an intrahelical site distinct from that of the broad spectrum antagonist TAK-779” (British Journal of Pharmacology, 2015).

In one experiment the target is T1, CXCR3 N132A (Homo sapiens, UniProt P49682, N132A).
T1 construct: expressed in transfected cells; host or cells: murine pre-B cell line L1.2, transient transfection
T1 sequence (P49682 1-368 N132A): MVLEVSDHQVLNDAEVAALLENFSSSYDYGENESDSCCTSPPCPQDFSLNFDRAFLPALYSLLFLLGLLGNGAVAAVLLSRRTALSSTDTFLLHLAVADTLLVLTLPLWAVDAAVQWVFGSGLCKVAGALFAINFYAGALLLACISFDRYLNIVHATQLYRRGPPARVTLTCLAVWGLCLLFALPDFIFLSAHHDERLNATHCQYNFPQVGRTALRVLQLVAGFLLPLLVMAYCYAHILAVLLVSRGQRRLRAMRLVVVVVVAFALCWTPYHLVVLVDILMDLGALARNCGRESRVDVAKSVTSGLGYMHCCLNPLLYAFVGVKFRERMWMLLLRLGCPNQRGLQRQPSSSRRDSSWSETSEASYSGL
As to the kind of experiment: Chemotaxis assay, L1.2 transfectants migrating to CXCL11. It counts as cell-based. The procedure: (§1) A previously described pcDNA3 plasmid containing human wild type (WT) CXCR3 cDNA with an HA epitope tag encoded at the N terminus (Meiser et al., [2008]) was used as a template for the generation of point mutants by PCR using the QuikChange II site-directed mutagenesis kit (Stratagene, Amsterdam, the Netherlands). All constructs were verified by DNA sequencing (Eurofins MWG Operon, Ebersberg, Germany) before use. L1.2 cells were transiently transfected by electroporation with 1 μg of vector DNA/10^6 cells at 330V, 975μF and incubated overnight in medium supplemented with 10 mM of sodium butyrate to enhance gene expression.
(§2) Assays of chemotactic responsiveness were carried out as previously described (Vaidehi et al., [2009]) using 96-well ChemoTx® plates with 5 μm pores (Neuroprobe, Gaithersburg, MD, USA). Migrating cells were detected by the use of CellTiter Glo® Dye (Promega, Southampton, UK) and resulting luminescence measured using a TopCount scintillation counter (PerkinElmer, Waltham, MA, USA). Basal migration of cells to buffer alone was subtracted from the resulting data, with individual results expressed as a percentage of the total cells applied to the filter. In all experiments, each data point was assayed in duplicate. In every experiment, cells transiently expressing WT CXCR3 were used as a positive control.

The next experiment deals with T2, CXCR3 V275A (Homo sapiens, UniProt P49682, V275A).
T2 construct: expressed in transfected cells; host or cells: murine pre-B cell line L1.2, transient transfection
T2 sequence (P49682 1-368 V275A): T1 sequence (P49682 1-368 N132A) with A132N, V275A
Described as above. In kind it is cell-based. Here is the method:
as §1, §2

The target of another experiment is T3, CXCR3 Y271A (Homo sapiens, UniProt P49682, Y271A).
T3 construct: expressed in transfected cells; host or cells: murine pre-B cell line L1.2, transient transfection
T3 sequence (P49682 1-368 Y271A): T1 sequence (P49682 1-368 N132A) with A132N, Y271A
The description is as above. It counts as cell-based. Here is the method: as §1, §2

Another experiment deals with T4, WT CXCR3 (Homo sapiens, UniProt P49682).
T4 construct: expressed in transfected cells; host or cells: murine pre-B cell line L1.2, transient transfection by electroporation
T4 sequence (P49682 1-368): T1 sequence (P49682 1-368 N132A) with A132N
Briefly: Whole-cell 125I-CXCL11 binding assay, L1.2 transfectants. As to conditions: WT CXCR3 transfectants (Figure 1); read-out: IC50 for displacement of 125I-CXCL11. A general note: Loss of bound radioactivity is the signal in a displacement assay; it reports binding, not function.

The target of the next experiment is T5, CXCR3 Y308A (Homo sapiens, UniProt P49682, Y308A).
T5 construct: expressed in transfected cells; host or cells: murine pre-B cell line L1.2, transient transfection
T5 sequence (P49682 1-368 Y308A): T1 sequence (P49682 1-368 N132A) with A132N, Y308A
The experiment is described as above.

Changes are numbered by the printed parent chain.

“CXCL11: recombinant human chemokine, CXCR3 agonist, purchased from PeproTech”: the “% of WT chemotaxis to 30 nM CXCL11 (mean ± SEM)” value with CXCR3 N132A is recorded as 0.7 ± 0.5%; with CXCR3 V275A, 52.9 ± 8.2%; in the experiment with CXCR3 Y271A, 1.0 ± 0.6%.
A word on the IC50: it is the concentration at which inhibition is half-maximal. For the compound `Cc1ccc(-c2ccc3c(c2)C=C(C(=O)Nc2ccc(C[N+](C)(C)C4CCOCC4)cc2)CCC3)cc1.[Cl-]` [TAK-779, N,N-dimethyl-N-[4-[[[2-(4-methylphenyl)-6,7-dihydro-5H-benzocyclohepten-8-yl]-carbonyl]amino]benzyl] tetrahydro-2H-pyran-4-aminium chloride], the IC50 on WT CXCR3 was determined as 15.6 µM; at CXCR3 Y308A (Y308A, 0.1 nM 125I-CXCL11, read-out: IC50 ligand binding (mean ± SEM)), 14.2 ± 3 µM. Besides, the “reduction in IC50 value, ligand binding” value at CXCR3 Y308A (Y308A relative to WT) was “twofold”.
